For series [1], the system named is Saccharomyces cerevisiae. Put plainly: protein stability index of tFT-peptide fusion (C-terminal peptide) (PSI (0-1 scale)); higher = more stable (slower turnover). The conditions noted are these: genetic background: wild type; temperature: 30 C.
The test system of series [2] is Saccharomyces cerevisiae. The series is described as above. As to the method: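 MPS profiling in S. cerevisiae of the tFT-X12 degron library: putative degron peptides plus stable controls, 12 aa, fused to the C-terminus of a sfGFP-mCherry timer. Cells are FACS-sorted into 8 mCherry/sfGFP bins and deep-sequenced. PSI runs from 0 (unstable) to 1 (stable). Backgrounds are wild type, das1Δ and doa10Δ at 30 °C, and wild type, das1Δ, cdc34-1 and cdc53-1 at 37 °C; 2-3 technical replicates each.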

Setting [3] is: genetic background: cdc34-1, temperature: 37 C.
Setting [4] is: genetic background: cdc53-1, temperature: 37 C.
Where [5] appears, read: genetic background: das1 deletion, temperature: 30 C.
[6] abbreviates: genetic background: das1 deletion, temperature: 37 C.
[7] abbreviates: genetic background: doa10 deletion, temperature: 30 C.
Where [8] appears, read: genetic background: wild type, temperature: 30 C.
Where [9] appears, read: genetic background: wild type, temperature: 37 C.

± gives the standard deviation of the averaged measurements.
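Also: PSI is a weighted mean of sequencing reads over stability bins, variants kept only with over 10 reads, mCherry proximal and sfGFP distal, peptide attached via GGGS linker.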

For the sequence ACGAGFIILLGL, the protein stability index with Saccharomyces cerevisiae [1] is 0.535 ± 0.077; with Saccharomyces cerevisiae [2] (setting [3]), 0.641 ± 0.086; in the series on Saccharomyces cerevisiae [2] (setting [4]), 0.613 ± 0.014; in the series with Saccharomyces cerevisiae [2] (setting [5]), 0.524 ± 0.022; with Saccharomyces cerevisiae [2] (setting [6]), 0.65 ± 0.015; in the series with Saccharomyces cerevisiae [2] (setting [7]), 0.571 ± 0.033. Also, the protein stability index in the series with Saccharomyces cerevisiae [2] (setting [8]) came out at 0.522 ± 0.019; with Saccharomyces cerevisiae [2] (setting [9]), 0.633 ± 0.008.

Turning to ACIFDMMWFWLF, the protein stability index in the series with Saccharomyces cerevisiae [1] turned out to be 0.499 ± 0.032; in the series with Saccharomyces cerevisiae [2] (setting [3]) it was 0.692 ± 0.068; in the series on Saccharomyces cerevisiae [2] (setting [4]), 0.721 ± 0.008; in the series on Saccharomyces cerevisiae [2] (setting [5]), 0.577 ± 0.034; in the series on Saccharomyces cerevisiae [2] (setting [6]) it was 0.75 ± 0.0093; with Saccharomyces cerevisiae [2] (setting [7]) it was 0.427 ± 0.02. In addition, the protein stability index with Saccharomyces cerevisiae [2] (setting [8]) worked out at 0.46 ± 0.02; in the series with Saccharomyces cerevisiae [2] (setting [9]) it was 0.573 ± 0.006.

For the sequence ACLLCVCVESRE, the protein stability index with Saccharomyces cerevisiae [1] turned out to be 0.494 ± 0.013; in the series on Saccharomyces cerevisiae [2] (setting [3]), 0.531 ± 0.045; with Saccharomyces cerevisiae [2] (setting [4]) it was 0.575 ± 0.053; in the series with Saccharomyces cerevisiae [2] (setting [5]), 0.414 ± 0.03; with Saccharomyces cerevisiae [2] (setting [6]), 0.61303 ± 0.00036; in the series with Saccharomyces cerevisiae [2] (setting [7]), 0.38 ± 0.016. Also, the protein stability index in the series on Saccharomyces cerevisiae [2] (setting [8]) was 0.41 ± 0.015; with Saccharomyces cerevisiae [2] (setting [9]), 0.5691 ± 0.0014.

AELLMLRIFFLF: the protein stability index in the series on Saccharomyces cerevisiae [1] is 0.132 ± 0.027; in the series with Saccharomyces cerevisiae [2] (setting [3]), 0.281 ± 0.0063; in the series with Saccharomyces cerevisiae [2] (setting [4]) it was 0.48 ± 0.036; in the series on Saccharomyces cerevisiae [2] (setting [5]) it was 0.333 ± 0.019; with Saccharomyces cerevisiae [2] (setting [6]) it was 0.491 ± 0.022; in the series with Saccharomyces cerevisiae [2] (setting [7]), 0.091 ± 0.0049. In addition, the protein stability index turned out to be 0.0708 ± 0.019 in the series on Saccharomyces cerevisiae [2] (setting [8]) and 0.0944 ± 0.032 in the series on Saccharomyces cerevisiae [2] (setting [9]).

Take AFFGIYLICFIV: the protein stability index was 0.207 ± 0.073 in the series with Saccharomyces cerevisiae [1]; 0.118 ± 0.008 in the series on Saccharomyces cerevisiae [2] (setting [3]); 0.2044 ± 0.00042 in the series on Saccharomyces cerevisiae [2] (setting [4]); 0.225 ± 0.024 in the series with Saccharomyces cerevisiae [2] (setting [5]); 0.382 ± 0.014 in the series with Saccharomyces cerevisiae [2] (setting [6]); 0.1711 ± 0.001 with Saccharomyces cerevisiae [2] (setting [7]). The results for the protein stability index with Saccharomyces cerevisiae [2] (setting [8]) and in the series with Saccharomyces cerevisiae [2] (setting [9]) were 0.125 ± 0.007 and 0.146 ± 0.013, respectively.

Regarding AFRFLAVCVGCG, the protein stability index was 0.263 ± 0.068 in the series with Saccharomyces cerevisiae [1]; 0.144 ± 0.009 in the series with Saccharomyces cerevisiae [2] (setting [3]); 0.158 ± 0.013 in the series on Saccharomyces cerevisiae [2] (setting [4]); 0.218 ± 0.02 with Saccharomyces cerevisiae [2] (setting [5]); 0.291 ± 0.0069 with Saccharomyces cerevisiae [2] (setting [6]); 0.168 ± 0.0081 with Saccharomyces cerevisiae [2] (setting [7]). In addition, the figures for the protein stability index in the series on Saccharomyces cerevisiae [2] (setting [8]) and in the series with Saccharomyces cerevisiae [2] (setting [9]) were 0.205 ± 0.018 and 0.24 ± 0.0071, respectively.

For AFRSPLLMLLVL, the protein stability index in the series on Saccharomyces cerevisiae [1] was 0.3468 ± 0.00084; with Saccharomyces cerevisiae [2] (setting [3]) it was 0.336 ± 0.0057; with Saccharomyces cerevisiae [2] (setting [4]), 0.381 ± 0.0068; in the series on Saccharomyces cerevisiae [2] (setting [5]), 0.32 ± 0.028; in the series on Saccharomyces cerevisiae [2] (setting [6]) it was 0.426 ± 0.01; with Saccharomyces cerevisiae [2] (setting [7]), 0.32 ± 0.0039. In addition, the values for the protein stability index in the series with Saccharomyces cerevisiae [2] (setting [8]) and in the series with Saccharomyces cerevisiae [2] (setting [9]) were 0.262 ± 0.031 and 0.354 ± 0.0056, respectively.

On to ALFISLAIWNWS, for which the protein stability index stood at 0.232 ± 0.012 in the series on Saccharomyces cerevisiae [1]; 0.0849 ± 0.024 with Saccharomyces cerevisiae [2] (setting [3]); 0.154 ± 0.018 with Saccharomyces cerevisiae [2] (setting [4]); 0.165 ± 0.027 in the series on Saccharomyces cerevisiae [2] (setting [5]); 0.318 ± 0.01 with Saccharomyces cerevisiae [2] (setting [6]); 0.142 ± 0.011 with Saccharomyces cerevisiae [2] (setting [7]). Moreover, the protein stability index in the series on Saccharomyces cerevisiae [2] (setting [8]) came out at 0.139 ± 0.0085; with Saccharomyces cerevisiae [2] (setting [9]), 0.2526 ± 0.00054.

On to APGLLPPCLLVV, for which the protein stability index amounted to 0.374 ± 0.033 in the series with Saccharomyces cerevisiae [2] (setting [3]); 0.387 ± 0.013 in the series with Saccharomyces cerevisiae [2] (setting [4]); 0.307 ± 0.045 in the series on Saccharomyces cerevisiae [2] (setting [5]); 0.458 ± 0.014 in the series on Saccharomyces cerevisiae [2] (setting [6]); 0.263 ± 0.0047 with Saccharomyces cerevisiae [2] (setting [7]); 0.3 ± 0.02 in the series on Saccharomyces cerevisiae [2] (setting [8]). In the series on Saccharomyces cerevisiae [2] (setting [9]), this sequence gave a protein stability index of 0.389 ± 0.0066.

As to EGREGGGRGEVL, the protein stability index with Saccharomyces cerevisiae [2] (setting [3]) was found to be 0.455 ± 0.011; in the series with Saccharomyces cerevisiae [2] (setting [4]), 0.589 ± 0.04; with Saccharomyces cerevisiae [2] (setting [5]), 0.471 ± 0.029; with Saccharomyces cerevisiae [2] (setting [6]) it was 0.496 ± 0.03; in the series with Saccharomyces cerevisiae [2] (setting [7]) it was 0.482 ± 0.024; in the series with Saccharomyces cerevisiae [2] (setting [8]) it was 0.479 ± 0.011. The same sequence showed a protein stability index in the series on Saccharomyces cerevisiae [2] (setting [9]) of 0.472 ± 0.013.

As for FSQGFRSPSECL, the protein stability index in the series with Saccharomyces cerevisiae [2] (setting [3]) was found to be 0.712 ± 0.03; with Saccharomyces cerevisiae [2] (setting [4]) it was 0.764 ± 0.014; in the series on Saccharomyces cerevisiae [2] (setting [5]) it was 0.63 ± 0.016; with Saccharomyces cerevisiae [2] (setting [6]) it was 0.765 ± 0.036; with Saccharomyces cerevisiae [2] (setting [7]), 0.647 ± 0.011; in the series on Saccharomyces cerevisiae [2] (setting [8]), 0.655 ± 0.023. The sequence also registered a protein stability index with Saccharomyces cerevisiae [2] (setting [9]) of 0.7608 ± 0.0072.

With FVVVVVWVSRGL, the protein stability index was determined as 0.174 ± 0.0059 in the series with Saccharomyces cerevisiae [2] (setting [3]); 0.399 ± 0.05 with Saccharomyces cerevisiae [2] (setting [4]); 0.214 ± 0.036 in the series on Saccharomyces cerevisiae [2] (setting [5]); 0.423 ± 0.008 in the series on Saccharomyces cerevisiae [2] (setting [6]); 0.172 ± 0.029 in the series on Saccharomyces cerevisiae [2] (setting [7]); 0.196 ± 0.048 in the series on Saccharomyces cerevisiae [2] (setting [8]). This sequence also returned a protein stability index with Saccharomyces cerevisiae [2] (setting [9]) of 0.383 ± 0.023.

For the sequence GGRREWCRGGGV, the protein stability index in the series with Saccharomyces cerevisiae [2] (setting [3]) stood at 0.635 ± 0.11; with Saccharomyces cerevisiae [2] (setting [4]) it was 0.746 ± 0.034; in the series with Saccharomyces cerevisiae [2] (setting [5]), 0.555 ± 0.029; with Saccharomyces cerevisiae [2] (setting [6]) it was 0.695 ± 0.03; with Saccharomyces cerevisiae [2] (setting [7]), 0.544 ± 0.0089; with Saccharomyces cerevisiae [2] (setting [8]), 0.546 ± 0.015. Moreover, the protein stability index in the series on Saccharomyces cerevisiae [2] (setting [9]) came out at 0.708 ± 0.03.

RWCLVWGGVWGV: the protein stability index in the series on Saccharomyces cerevisiae [2] (setting [3]) was 0.593 ± 0.03; in the series on Saccharomyces cerevisiae [2] (setting [4]), 0.68 ± 0.025; with Saccharomyces cerevisiae [2] (setting [5]) it was 0.494 ± 0.029; with Saccharomyces cerevisiae [2] (setting [6]) it was 0.674 ± 0.02; in the series with Saccharomyces cerevisiae [2] (setting [7]), 0.486 ± 0.013; in the series on Saccharomyces cerevisiae [2] (setting [8]), 0.5 ± 0.017. This sequence also registered a protein stability index with Saccharomyces cerevisiae [2] (setting [9]) of 0.645 ± 0.011.

As to SSLRATLLIRAV, the protein stability index in the series with Saccharomyces cerevisiae [2] (setting [3]) worked out at 0.543 ± 0.023; in the series on Saccharomyces cerevisiae [2] (setting [4]), 0.564 ± 0.011; in the series on Saccharomyces cerevisiae [2] (setting [5]), 0.44 ± 0.019; in the series with Saccharomyces cerevisiae [2] (setting [6]) it was 0.584 ± 0.0032; in the series with Saccharomyces cerevisiae [2] (setting [7]), 0.352 ± 0.025; in the series on Saccharomyces cerevisiae [2] (setting [8]) it was 0.371 ± 0.032. The sequence further displayed a protein stability index with Saccharomyces cerevisiae [2] (setting [9]) of 0.5171 ± 0.0041.

VLLCGRMVVVEW: the protein stability index in the series on Saccharomyces cerevisiae [2] (setting [3]) was 0.0831 ± 0.0095; with Saccharomyces cerevisiae [2] (setting [4]), 0.163 ± 0.0037; with Saccharomyces cerevisiae [2] (setting [5]), 0.163 ± 0.01; in the series on Saccharomyces cerevisiae [2] (setting [6]), 0.143 ± 0.011; in the series with Saccharomyces cerevisiae [2] (setting [7]) it was 0.196 ± 0.032; in the series on Saccharomyces cerevisiae [2] (setting [8]), 0.153 ± 0.014. The protein stability index in the series on Saccharomyces cerevisiae [2] (setting [9]) is 0.132 ± 0.021.

The sequence WGVCWRVWGFGC had a protein stability index in the series on Saccharomyces cerevisiae [1] of 0.677 ± 0.074.

With WGWGGGWSGACL, the protein stability index with Saccharomyces cerevisiae [1] came out at 0.679 ± 0.0071.

Sequence WGWGRWEMVGRT displayed a protein stability index in the series on Saccharomyces cerevisiae [1] of 0.695 ± 0.011.

Source of the values: the supplement of paper PMC10724198.
